Reference: article PMC5988292 (2018)

B1: PRG-PH (non-fluorescent PH domain of PDZRhoGEF) (domain or fragment)
chain: VKQTENRHRLEGYQKRLDATALERASNPLAAEFKSLDLTTRKMIHEGPLTWRISKDKTLDLHVLLLEDLLVLLQKQDEKLLLKCHSKTAVGSSDSKQTFSPVLKLNAVLIRSVATDKRAFFIICTSKLGPPQIYELVALTSSDKNTWMELLEEAVRNATRHP
B2: PH domain from LARG (domain or fragment)
chain: KMIHEGPLVWKVNRDKTIDLYTLLLEDILVLLQKQDDRLVLRCHSKILASTADSKHTFSPVIKLSTVLVRQVATDNKALFVISMSDNGAQIYELVAQTVSEKTVWQDLICRMAA
B3: PH domain from p190RhoGEF (domain or fragment)
chain: TLLYDGLVYWKTATGRFKDILALLLTDVLLFLQEKDQKYIFAAVDQKPSVISLQKLIAREVANEERGMFLISASSAGPEMYEIHTNSKEERNNWMRRIQQAVE
B4: p115-PH (PH domain of p115RhoGEF) (domain or fragment)
chain: KLVHEGPLTWRVTKDKAVEVHVLLLDDLLLLLQRQDERLLLKSHSRTLTPTPDGKTMLRPVLRLTSAMTREVATDHKAFYVLFTWDQEAQIYELVAQTVSERKNWCALITETAG

The binders below were run against YFP-RhoA·GTPγS (UniProt P61586 1-193) (assay: FRET; competition with CFP-PRG-PH).
Sequence of YFP-RhoA·GTPγS (P61586 whole entry): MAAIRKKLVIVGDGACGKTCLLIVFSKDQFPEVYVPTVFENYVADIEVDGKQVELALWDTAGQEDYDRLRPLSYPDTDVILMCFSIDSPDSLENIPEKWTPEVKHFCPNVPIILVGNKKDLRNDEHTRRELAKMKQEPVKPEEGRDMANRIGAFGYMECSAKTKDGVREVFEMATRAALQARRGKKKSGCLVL

Row | IC50 | Binder
1 | 3.4 µM | B1
2 | 10.5 µM | B2
3 | 7.2 µM | B3
4 | 170 µM | B4
